Assay in all cases: two-hybrid library CCmax;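 note: natural log of median RNA to DNA barcode read ratio; higher means stronger binding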
The target of one test is GCN2_T.
The next test deals with T1, P8-AA.
T1 chain: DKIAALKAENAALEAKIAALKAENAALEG
The following applies: mean of both orientations.

The next test concerns the target T2, AP5-AA.
T2 chain: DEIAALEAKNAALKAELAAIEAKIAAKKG

A further test deals with T3, AP6-AA.
T3 chain: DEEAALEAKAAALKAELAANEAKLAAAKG
Particulars: mean of both orientations.

The target in a further test is T4, P4-AA.
T4 chain: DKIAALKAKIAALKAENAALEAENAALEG
Particulars: mean of both orientations.

Another test concerns the target T5, P3-AA.
T5 chain: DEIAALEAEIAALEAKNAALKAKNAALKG
The following applies: mean of both orientations.

In another test the target is T6, P7-AA.
T6 chain: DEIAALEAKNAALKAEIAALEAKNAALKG
The following applies: mean of both orientations.

The target of the next test is T7, P11-AA.
T7 chain: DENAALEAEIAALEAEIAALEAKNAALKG
The following applies: mean of both orientations.

The next test has as its target T8, AP8-AA.
T8 chain: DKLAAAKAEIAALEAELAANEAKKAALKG
The following applies: mean of both orientations.

A further test concerns the target T9, P10-AA.
T9 chain: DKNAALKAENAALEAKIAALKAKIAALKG
The following applies: mean of both orientations.

The target of the next test is T10, P9-AA.
T10 chain: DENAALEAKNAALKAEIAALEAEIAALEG
The following applies: mean of both orientations.

For the next test, the target named is T11, P1-AA.
T11 chain: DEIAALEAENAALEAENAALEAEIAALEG
Particulars: mean of both orientations.

Another test has as its target T12, P12-AA.
T12 chain: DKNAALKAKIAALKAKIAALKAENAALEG
The following applies: mean of both orientations.

The next test addresses T13, P2-AA.
T13 chain: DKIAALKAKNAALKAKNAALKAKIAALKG
The following applies: mean of both orientations.

A further test addresses T14, AP7-AA.
T14 chain: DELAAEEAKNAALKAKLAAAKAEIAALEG
Particulars: mean of both orientations.

A further test concerns the target T15, P2-AA-12HGe-M.
T15 chain: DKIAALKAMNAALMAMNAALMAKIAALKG
Particulars: mean of both orientations.

In another test the target is T16, P2-AA-12HGe-W.
T16 chain: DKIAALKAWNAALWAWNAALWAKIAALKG
The following applies: mean of both orientations.

The next test concerns the target T17, P2-AA-12HGe-T.
T17 chain: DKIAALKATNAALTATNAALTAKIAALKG
The following applies: mean of both orientations.

The next test has as its target T18, P2-AA-12HGe-Q.
T18 chain: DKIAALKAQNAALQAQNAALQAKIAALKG
The following applies: mean of both orientations.

A further test has as its target T19, P2-AA-12HGe-R.
T19 chain: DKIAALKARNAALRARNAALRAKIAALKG
Particulars: mean of both orientations.

Another test addresses T20, P2-AA-12HGe-S.
T20 chain: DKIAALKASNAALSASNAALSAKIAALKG

The target of the next test is T21, P2-AA-12HGe-A.
T21 chain: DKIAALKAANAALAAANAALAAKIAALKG
Particulars: mean of both orientations.

A further test addresses T22, P2-AA-12HGe-D.
T22 chain: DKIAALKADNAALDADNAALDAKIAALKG
The following applies: mean of both orientations.

A further test concerns the target T23, P2-AA-12HGe-E.
T23 chain: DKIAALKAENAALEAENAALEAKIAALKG
The following applies: mean of both orientations.

The target of another test is T24, P2-AA-12HGe-H.
T24 chain: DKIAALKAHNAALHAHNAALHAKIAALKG
Particulars: mean of both orientations.

The next test concerns the target T25, P6-AA-12HGe-M.
T25 chain: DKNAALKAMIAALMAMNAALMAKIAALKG
The following applies: mean of both orientations.

Another test has as its target T26, P6-AA-12HGe-H.
T26 chain: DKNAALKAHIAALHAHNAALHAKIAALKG
Particulars: mean of both orientations.

The next test has as its target T27, P6-AA-12HGe-S.
T27 chain: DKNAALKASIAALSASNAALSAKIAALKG
Particulars: mean of both orientations.

The next test deals with T28, P6-AA-12HGe-A.
T28 chain: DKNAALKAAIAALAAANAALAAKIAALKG
The following applies: mean of both orientations.

A further test addresses T29, P6-AA-12HGe-R.
T29 chain: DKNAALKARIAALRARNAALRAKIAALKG
The following applies: mean of both orientations.

In a further test the target is T30, P6-AA-12HGe-D.
T30 chain: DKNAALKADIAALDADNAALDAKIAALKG
The following applies: mean of both orientations.

The next test concerns the target T31, P6-AA-12HGe-T.
T31 chain: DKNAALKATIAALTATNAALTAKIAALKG
The following applies: mean of both orientations.

Another test deals with T32, P6-AA-12HGe-K.
T32 chain: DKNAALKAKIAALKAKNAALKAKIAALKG
Particulars: mean of both orientations.

A further test addresses T33, P6-AA-12HGe-Q.
T33 chain: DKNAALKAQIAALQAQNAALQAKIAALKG
The following applies: mean of both orientations.

Another test deals with T34, P6-AA-12HGe-W.
T34 chain: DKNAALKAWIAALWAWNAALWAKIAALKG
The following applies: mean of both orientations.

Read-outs that look alike come from different tables or passages of the source.

In the case of DEIAALEAKNAALKAELAAIEAKIAAKKG [AP5-AA], the interaction score with GCN2_T was -0.794; with P8-AA, 2.11; with AP5-AA, -0.918; with AP6-AA, 1.53; with P4-AA it was -0.912; in the test with P3-AA it was -1.62. In addition, the interaction score was -0.672 with P7-AA; -0.907 in the test with P11-AA; -1.08 with AP8-AA; 1.37 in the test with P10-AA; -0.644 with P9-AA; -1.35 in the test with P1-AA. Also, the interaction score with P12-AA was -1.41; with P2-AA, -1.24; with AP7-AA, -1.69.

As for DEIAALEAYNAALYAYNAALYAEIAALEG [P1-AA-12HGe-Y], the interaction score with P2-AA-12HGe-M is 1.77; in the test with P2-AA-12HGe-W, -0.349; in the test with P2-AA-12HGe-T it was -0.661; with P2-AA-12HGe-Q, 0.637; in the test with P2-AA-12HGe-R, -0.521; in the test with P2-AA-12HGe-S (mean of both orientations), -1.06. The interaction score in the test with P2-AA-12HGe-A is -0.289; with P2-AA-12HGe-D, -1.65; in the test with P2-AA-12HGe-E, 2.36; with P2-AA, -0.194; with P2-AA-12HGe-H it was -1.21.

As for DEIAALEATNAALTATNAALTAEIAALEG [P1-AA-12HGe-T], the interaction score in the test with P2-AA-12HGe-M was -0.103; with P2-AA-12HGe-W, -1.56; in the test with P2-AA-12HGe-T, -0.824; with P2-AA-12HGe-Q, 0.761; with P2-AA-12HGe-R, -0.61; in the test with P2-AA-12HGe-S (mean of both orientations) it was -0.683. Also, the interaction score with P2-AA-12HGe-A was 0.941; with P2-AA-12HGe-D it was -1.6; with P2-AA-12HGe-E it was 1.26; with P2-AA, -0.397; with P2-AA-12HGe-H, -1.51.

Turning to DEIAALEAMNAALMAMNAALMAEIAALEG [P1-AA-12HGe-M], the interaction score with P2-AA-12HGe-M worked out at 1.82; with P2-AA-12HGe-W it was 0.93; in the test with P2-AA-12HGe-T, 1.77; with P2-AA-12HGe-Q, 2.16; with P2-AA-12HGe-R, 1.45; with P2-AA-12HGe-S (mean of both orientations), 1.02. Also, the interaction score with P2-AA-12HGe-A is 1.71; with P2-AA-12HGe-D it was -1.52; with P2-AA-12HGe-E, 2.2; in the test with P2-AA, 1.39; in the test with P2-AA-12HGe-H, 0.866.

As to DEIAALEARNAALRARNAALRAEIAALEG [P1-AA-12HGe-R], the interaction score with P2-AA-12HGe-M is -0.0699; with P2-AA-12HGe-W, -1.15; with P2-AA-12HGe-T it was 0.3; in the test with P2-AA-12HGe-Q, 1.28; with P2-AA-12HGe-R, -0.893; with P2-AA-12HGe-S (mean of both orientations), 1.19. For the same molecule, the interaction score with P2-AA-12HGe-A is 1.68; with P2-AA-12HGe-D, 1.05; with P2-AA-12HGe-E, 2.08; with P2-AA, -0.71; with P2-AA-12HGe-H, -0.986.

Consider DENAALEADIAALDADNAALDAEIAALEG [P5-AA-12HGe-D], for which the interaction score is -2.09 with P6-AA-12HGe-M; -2.35 with P6-AA-12HGe-H; -2.03 with P6-AA-12HGe-S; -1.85 with P6-AA-12HGe-A; -0.833 with P6-AA-12HGe-R; -1.85 with P6-AA-12HGe-D. Further, the interaction score with P6-AA-12HGe-T is -1.98; with P6-AA-12HGe-K it was -0.581; in the test with P6-AA-12HGe-Q it was -1.56; in the test with P6-AA-12HGe-W, -1.67.

With DEIAALEAQNAALQAQNAALQAEIAALEG [P1-AA-12HGe-Q], the interaction score is 1.64 with P2-AA-12HGe-M; -0.264 in the test with P2-AA-12HGe-W; 1.03 with P2-AA-12HGe-T; 1.8 with P2-AA-12HGe-Q; 1.56 with P2-AA-12HGe-R; 0.227 with P2-AA-12HGe-S (mean of both orientations). The interaction score in the test with P2-AA-12HGe-A is 1.99; in the test with P2-AA-12HGe-D, -1.92; with P2-AA-12HGe-E, 2.09; with P2-AA, 1.92; with P2-AA-12HGe-H, 0.459.

As for DEIAALEAKNAALKAKNAALKAEIAALEG [P1-AA-12HGe-K], the interaction score was 0.464 with P2-AA-12HGe-M; -2.11 with P2-AA-12HGe-W; -0.493 with P2-AA-12HGe-T; 1.06 with P2-AA-12HGe-Q; -1.01 with P2-AA-12HGe-R; 0.655 with P2-AA-12HGe-S (mean of both orientations). The interaction score was 1.6 with P2-AA-12HGe-A; 0.189 with P2-AA-12HGe-D; 2.31 with P2-AA-12HGe-E; -0.289 with P2-AA; -1.62 in the test with P2-AA-12HGe-H.

Regarding DEIAALEAANAALAAANAALAAEIAALEG [P1-AA-12HGe-A], the interaction score was 1.4 with P2-AA-12HGe-M; 0.0222 in the test with P2-AA-12HGe-W; 1.71 in the test with P2-AA-12HGe-T; 1.96 with P2-AA-12HGe-Q; 0.662 with P2-AA-12HGe-R; -0.384 with P2-AA-12HGe-S. For the same molecule, the interaction score was 1.6 with P2-AA-12HGe-A; -1.64 in the test with P2-AA-12HGe-D; 1.62 with P2-AA-12HGe-E; 1.49 with P2-AA; 0.332 in the test with P2-AA-12HGe-H.

Turning to DEIAALEAHNAALHAHNAALHAEIAALEG [P1-AA-12HGe-H], the interaction score is -0.622 with P2-AA-12HGe-M; -1.45 with P2-AA-12HGe-W; -1.51 in the test with P2-AA-12HGe-T; 0.16 in the test with P2-AA-12HGe-Q; -1.54 in the test with P2-AA-12HGe-R; -1.37 with P2-AA-12HGe-S (mean of both orientations). Moreover, the interaction score is 0.105 in the test with P2-AA-12HGe-A; -1.6 in the test with P2-AA-12HGe-D; 2 with P2-AA-12HGe-E; -1.14 in the test with P2-AA; -1.82 with P2-AA-12HGe-H.

For DEIAALEAWNAALWAWNAALWAEIAALEG [P1-AA-12HGe-W], the interaction score with P2-AA-12HGe-M is 0.936; in the test with P2-AA-12HGe-W it was -0.0819; in the test with P2-AA-12HGe-T, -0.385; with P2-AA-12HGe-Q it was 1.69; with P2-AA-12HGe-R, 0.108; in the test with P2-AA-12HGe-S (mean of both orientations) it was -0.243. In addition, the interaction score in the test with P2-AA-12HGe-A is 1.75; in the test with P2-AA-12HGe-D it was -1.76; with P2-AA-12HGe-E it was 1.5; with P2-AA, -1.08; with P2-AA-12HGe-H, -1.02.

The record behind these values is article PMC10397247.
